Results taken from patent US20240115706A1.

Key:
[1] = target: mouse GUCY2C-rCD4 fusion protein (Mus musculus (house mouse); Rattus norvegicus); assay: ELISA (DELFIA), antigen on streptavidin plate, scFv culture solution, Eu-anti-tag Ab
[2] = target: monkey GUCY2C-rCD4 fusion protein (Macaca fascicularis (crab-eating macaque); Rattus norvegicus); assay: as above
monkey GUCY2C-rCD4 fusion protein (Macaca fascicularis (crab-eating macaque); Rattus norvegicus), sequence (chain, as listed by the source limits assumed): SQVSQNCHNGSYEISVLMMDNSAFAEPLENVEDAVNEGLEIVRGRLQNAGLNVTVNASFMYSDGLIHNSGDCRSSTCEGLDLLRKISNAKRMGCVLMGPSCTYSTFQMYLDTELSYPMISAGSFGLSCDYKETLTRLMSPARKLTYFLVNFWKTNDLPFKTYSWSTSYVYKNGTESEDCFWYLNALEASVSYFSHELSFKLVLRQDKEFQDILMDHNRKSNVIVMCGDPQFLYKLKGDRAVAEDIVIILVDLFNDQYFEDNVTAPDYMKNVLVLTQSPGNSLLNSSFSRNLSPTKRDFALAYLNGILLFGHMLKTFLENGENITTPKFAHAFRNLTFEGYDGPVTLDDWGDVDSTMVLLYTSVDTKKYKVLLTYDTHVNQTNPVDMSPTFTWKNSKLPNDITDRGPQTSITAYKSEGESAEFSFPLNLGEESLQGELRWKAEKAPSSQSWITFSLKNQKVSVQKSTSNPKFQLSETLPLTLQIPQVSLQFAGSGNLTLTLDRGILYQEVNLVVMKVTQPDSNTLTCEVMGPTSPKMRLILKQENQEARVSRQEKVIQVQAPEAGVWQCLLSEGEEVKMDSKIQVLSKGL

Binder | Binding ELISA signal [1] | Binding ELISA signal [2]
scFv A03 (scFv) scFv: QVQLVQSGAEVKKPGSSVKVSCKASGGTFSSYTISWVRQAPGQELEWMGRIIPILGIANYAQKFQGRVTITADKSTSTAYMELSSLRSEDTAVYYCARDYSSSWNSMDVWGQGTLVTVSSGGGGSGGGGSGGGASQSGLTQPPSASGSPGQSVTISCTGTSSDIGYYHYVSWYQQHPGKAPKLMIYEDSKRPSGISNRFSGSKSGTTASLTVSGLQAEDEAHYYCSSFTSRSTWVFGGGTQLTVL | 77 | –
scFv B07 (scFv) scFv: EVQLVQSGAEVKRPGSSVKVSCKASGYTFTSYYMHWVRQAPGQGLEWMGIINPSGGSTSYAQKFQGRVTMTRDTSTSTVYMELSSLRSEDTAVYYCAAGTYSSGWTIDYWGQGTTVTVSSGGGGSGGGGSGGGASDIVMTQSPLSLPVTLGQPASISCRSSQSLVYTDGNTYLNWFQQRPGQSPRRLIYKVSNRDSGVPDRFSGSGSGTDFTLKISRVEAEDVGIYYCMHSKQWPPTFGGGTKVEIK | 66 | –
scFv A01 (scFv) scFv: QVQLVQSGAEVKKPGASVKVSCKASGYTFTSYYMHWVRQAPGQGLEWMGIINPSGGSTSYAQEFQGRVTMTRDTSTSTVYMELSSLRSEDTAVYYCARDGQWLQFDYWGQGTLVTVSSGGGGSGGGGSGGGASDIVMTQSPLSLPVTLGQPASISCRSSQSLLKKSDGNTYLSWYHQRPGQSPRRLIYKVSNRDSGVPDRFSGSGSDTDFTLKISRVETEDVGIYYCMQGSHWPPTFGQGTKVEIK | 352 | –
scFv B12 (scFv) scFv: QVQLVESGGGLVKPGGSLRLSCAASGFTFSSYSMNWVRQAPGKGLEWVSVIYSGGSTHYADSVKGRFTISRHNSKNTLYLQMNSLRAEDTAVYYCARGAGTLNAFDIWGQGTTVTVSSGGGGSGGGGSGGGASQSGLTQPPSTSGSPGQSVTISCTGTSSDVGAYSYVSWYQQHPGKAPKLLIYAVTKRPSGVPDRFSGSKSGNTASLTVSGLQDEDEADYYCSSFAGGSTLVFGGGTKLTVL | 48 | –
scFv C02 (scFv) scFv: QVQLVQSGAEVKKPGSSVKVSCKASGGTFSSYTISWVRQAPGQGLEWMGRIIPILGIANYAQKFQGRVTITADKSTSTAYMELSSLRSEDTAVYYCARDRSYNWLDPWGRGTLVTVSSGGGGSGGGGSGGGASQSALTQPVSVSGSPGQSITISCTGTISDVGDYNYVSWYQQHPGKAPKLMIYDVNNRPSGVSNRFSGSKSGNTASLTISGLQAEDEADYYCSSYTSSSTLVFGGGTKLTVL | 61 | –
scFv A04 (scFv) scFv: EVQLVQPGAEVKKPGSSVKVSCKASGGTLSSYAISWVRQAPGQGLEWMGRIIPILGITNYAQKFQGRVTITADKSTSTAYMELSSLRSEDTAVYFCARDQRPASMDVWGQGTLVTVSSGGGGSGGGGSGGGASQSELTQPASVSGSPGQSITISCTGTSSDVGGYIYVSWYQQHPGKVPKLMIHDVSHRPSGVSNRFSGSRSGNTASLTISGLQAEDEADYFCSSYTSSNNYYFGTGTKVTVL | 66 | 73
scFv A12 (scFv) scFv: EVQLVQPGAEVKKPGSSVKVSCKASGGTLSSYAISWVRQAPGQGLEWMGRIIPILGITNYAQKFQGRVTITADKSTSTAYMELSSLRSEDTAVYFCARDQRPASMDVWGQGTLVTVSSGGGGSGGGGSGGGASQSELTQPASVSGSPGQSITISCTGTSSDVGGYIYVSWYQQHPGKVPKLMIHDVSHRPSGVSNRFSGSRSGNTASLTISGLQAEDEADYFCSSYTSSNNYVFGTGTKVTVL | 53 | 56
scFv A02 (scFv) scFv: EVQLVQPGAEVKKPGSSVKVSCKASGGTLSSYAISWVRQAPGQGLEWMGRIIPILGITNYAQKFQGRVTITADKSTSTAYMELSSLRSEDTAVYFCARDQRPASMDVWGQGTLVTVSSGGGGSGGGGSGGGASQSELTQPASVSGSPGQSITISCTGTSSDVGGYIYVSWYQQHPGKVPKLMIHDVSHRPSGVSNRFSGSRSGNTASLTISGLQAEDEADYFCSSYAGSNNYVFGTGTKVTVL | 74 | 60

Further lines, results first:

Binding ELISA signal [1] | Binding ELISA signal [2] | Binder
70 | – | scFv B01 (scFv) scFv: EVQLVQPGAEVKKPGSSVKVSCKASGGTLSSYAISWVRQAPGQGLEWMGRIIPILGITNYAQKFQGRVTITADKSTSTAYMELSSLRSEDTAVYFCARDQRPASMDVWGQGTLVTVSSGGGGSGGGGSGGGASQSGLTQPASVSGSPGQSITISCTGTSSDVGGYNYVSWYQQHPGKAPKLMIYEVSNRPSGVSNRFSGSKSGNTASLTISGLQAEDEADYYCSTVTSLSTYVFGTGTKLTVL
62 | 89 | scFv A05 (scFv) scFv: QVQLVQSGAEVKKPGSSVKVSCKASGGTFSSYTITWVRQAPGQGLEWMGRIIPVLGIANYAQKFQGRVTITADKSTSTAYMELSSLRSEDTAVYYCARDYSSSWNSMDVWGQGTLVTVSSGGGGSGGGGSGGGASQSGLTQPRSVSGSPGQSVTISCTGTSSDVGGYNYVSWYQQHPGKAPKLMIYDVSKRPSGVPDRFSGSKSGNTASLTVSGLHAEDEADYYCSSYAGSNNFVFGTGTKVTVL
80 | – | scFv A06 (scFv) scFv: QVQLVQSGAEVKKPGSSVKVSCKASGGTFGSYTISWVRQAPGQGLEWMGRIIPILGIANYAQKFQGRVTITADKSTSTAYMELSSLRSEDTAVYYCARDYSSSWNSMDVWGQGTLVTVSSGGGGSGGGGSGGGASQSGLTQPRSVSGSPGQSVTISCTGTSSDVGAYNYVSWYQQHPGKAPKLMIYEVSKRPSGVPDRFSASKSGNTASLTVSGLQAEDEADYYCSSYAGSNNWVFGGGTKLTVL
